Laboratory results: article doi:10.1101/2020.04.28.064113 (bioRxiv, 2020)

Biological target: Ubiquitin (wild-type), 15N isotopically labelled (UniProt P0CG47 1-76)
Assay: NMR titration

binding result: binds
B1: stapled Cys-Ubq3-Cys peptide (stapled xenonucleus) (peptide)
peptide: CMQIFVKTLTGKTITLEVC
modifications: disulphide bridge between the two terminal cysteines
